The results in this text go back to patent publication US20230129812A1 (ACCELERON PHARMA, published 2023).

T1: activin A (UniProt P08476 311-426)
T1 construct: also called ActA
T1 sequence (looked up): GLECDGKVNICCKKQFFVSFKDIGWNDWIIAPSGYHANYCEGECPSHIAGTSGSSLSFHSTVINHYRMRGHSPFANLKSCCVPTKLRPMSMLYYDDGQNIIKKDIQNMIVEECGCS

T2: Soluble ActRIIB-Fc +15tail (Homo sapiens (Human), UniProt Q13705 19-134)
T2 construct: not shown: linker and Fc
T2 sequence (looked up): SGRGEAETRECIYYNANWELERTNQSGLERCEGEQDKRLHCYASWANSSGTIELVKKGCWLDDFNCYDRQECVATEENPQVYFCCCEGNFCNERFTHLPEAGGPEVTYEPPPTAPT

T3: activin B (UniProt P09529 293-407)
T3 sequence (looked up): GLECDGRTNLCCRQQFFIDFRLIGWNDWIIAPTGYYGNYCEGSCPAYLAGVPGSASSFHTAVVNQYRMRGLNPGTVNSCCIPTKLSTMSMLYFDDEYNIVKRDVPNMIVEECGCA

T4: activin AB (UniProt P08476 311-426; P09529 293-407)
T4 sequence (looked up) 1: T1 sequence (looked up)
T4 sequence (looked up) 2: T3 sequence (looked up)

T5: activin AC (UniProt P08476 311-426; P55103 237-352)
T5 sequence (looked up) 1: T1 sequence (looked up)
T5 sequence (looked up) 2: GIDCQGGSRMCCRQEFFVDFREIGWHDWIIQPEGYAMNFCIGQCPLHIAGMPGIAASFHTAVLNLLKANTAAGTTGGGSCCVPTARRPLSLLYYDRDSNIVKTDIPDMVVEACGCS

T6: BMP6 (UniProt P22004 375-513, limits assumed)
T6 sequence (looked up): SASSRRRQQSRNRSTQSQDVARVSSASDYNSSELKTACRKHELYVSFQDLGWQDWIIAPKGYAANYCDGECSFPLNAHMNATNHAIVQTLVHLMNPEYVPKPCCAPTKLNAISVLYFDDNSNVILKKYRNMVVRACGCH

T7: BMP7 (UniProt P18075 293-431)
T7 sequence (looked up): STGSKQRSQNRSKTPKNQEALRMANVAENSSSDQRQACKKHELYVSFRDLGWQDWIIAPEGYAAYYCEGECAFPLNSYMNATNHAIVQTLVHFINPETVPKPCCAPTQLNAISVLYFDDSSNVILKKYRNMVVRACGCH

T8: GDF8 (UniProt O14793 267-375)
T8 construct: also called myostatin
T8 sequence (looked up): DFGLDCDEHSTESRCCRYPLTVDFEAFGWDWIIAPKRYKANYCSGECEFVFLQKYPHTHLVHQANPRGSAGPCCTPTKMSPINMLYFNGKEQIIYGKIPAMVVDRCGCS

B1: Soluble ActRIIB-Fc L79A (Table 11) (Fc fusion, UniProt Q13705 19-119, looked up, not shown: a dimerising Fc or GST)
chain: SGRGEAETRECIYYNANWELERTNQSGLERCEGEQDKRLHCYASWANSSGTIELVKKGCWADDFNCYDRQECVATEENPQVYFCCCEGNFCNERFTHLPEA
B2: Soluble ActRIIB-Fc R40A (Table 11) (Fc fusion, UniProt Q13705 19-119, looked up, not shown: a dimerising Fc or GST)
chain: B1 chain with R22A, A61L
B3: GDF11 (ligand, UniProt O95390 299-407, looked up)
chain: NLGLDCDEHSSESRCCRYPLTVDFEAFGWDWIIAPKRYKANYCSGQCEYMFMQKYPHTHLVQQANPRGSAGPCCTPTKMSPINMLYFNDKQQIIYGKIPGMVVDRCGCS
notes: also called BMP11
B4: ALK4-Fc homodimer (Fc fusion, not shown: a dimerising Fc or GST)
chain: SGPRGVQALLCACTSCLQANYTCETDGACMVSIFNLDGMEHHVRTCIPKVELVPAGKPFYCLSSEDLRNTHCCYTDYCNRIDLRVPSGHLKEPEHPSMWGPVE
B5: ActRIIB(L79D 25-131)-hFc (Fc fusion)
chain: ETRECIYYNANWELERTNQSGLERCEGEQDKRLHCYASWRNSSGTIELVKKGCWDDDFNCYDRQECVATEENPQVYFCCCEGNFCNERFTHLPEAGGPEVTYEPPPTGGGTHTCPPCPAPELLGGPSVFLFPPKPKDTLMISRTPRVTCVVVDVSHEDPEVKFNWYVDGVEVHNAKTKPREEQYNSTYRVVSVLTVLHQDWLNGKEYKCKVSNKALPAPIEKTISKAKGQPREPQVYTLPPSREEMTKNQVSLTCLVKGFYPSDIAVEWESNGQPENNYKTTPPVLDSDGSFFLYSKLTVDKSRWQQGNVFSCSVMHEALHNHYTQKSLSLSPGK
B6: BMP10 (ligand, UniProt O95393 317-424, looked up)
chain: NAKGNYCKRTPLYIDFKEIGWDSWIIAPPGYEAYECRGVCNYPLAEHLTPTKHAIIQALVHLKNSQKASKACCVPTKLEPISILYLDKGVVTYKFKYEGMAVSECGCR

Experiment [1] has as its target B3. Description: SPR (Biacore); ligand coupled, receptor flowed over (as reported in WO2006/012627). The source says:
(§1) Other variants have been generated and tested, as reported in WO2006/012627 (incorporated herein by reference in its entirety). See, e.g., pp. 59-60, using ligands coupled to the device and flowing receptor over the coupled ligands. […] Table 11 showing data with respect to these variants is reproduced below: […]
A general note: In SPR one partner is held on a chip, and binding of the other changes the refractive index at the surface.

For experiment [2], the target named is T1, activin A. Description: SPR (Biacore); ligand coupled, receptor flowed over (as reported in WO2006/012627); + means WT.
Source text: as §1

Experiment [3] has as its target T1, activin A. The experiment is described as follows: SPR (Biacore); ligand coupled, receptor flowed over (as reported in WO2006/012627); - means ~1/2 WT binding.
Source text: as §1

Experiment [4] addresses B3. The description is as above.
Source text: as §1

Experiment [5] concerns the target T9, ActRIIA-mFc (human, UniProt P27037 21-135).
T9 construct: not shown: minimal linker and mouse Fc domain
The experiment is described as follows: SPR (Biacore); ligand amine-coupled to CM5 chip, receptor-Fc injected.

The target of experiment [6] is T2, Soluble ActRIIB-Fc +15tail. The experiment is described as follows: SPR (Biacore); ligand coupled, receptor flowed over (as reported in WO2006/012627).
Source text: as §1

The target in experiment [7] is T1, activin A. Description: SPR (Biacore); receptor-Fc captured by anti-Fc antibody, ligand injected. On the procedure:
(§2) A Biacore™-based binding assay was used to compare ligand binding selectivity of the ALK4-Fc:ActRIIB-Fc heterodimeric complex described above with that of ActRIIB-Fc and ALK4-Fc homodimer complexes. The ALK4-Fc:ActRIeB-Fc heterodimer, […], and ALK4-Fc homodimer were independently captured onto the system using an anti-Fc antibody. Ligands were injected and allowed to flow over the captured receptor protein. Results are summarized in Table 13 below, in which ligand off-rates (kd) most indicative of effective polypeptides are denoted in bold.

In experiment [8] the target is B3. The experiment is described as above. On the procedure:
as §2

The target in another experiment is T3, activin B. The description is as above. On the procedure: as §2
Experiment [9] has as its target T1, activin A. The experiment is described as above. On the procedure: (§3) A Biacore™-based binding assay was used to compare ligand binding selectivity of the ActRIIA-Fc:ALK4-Fc heterodimeric complex described above with that of ActRIIA-Fc and ALK4-Fc homodimeric complexes. The ActRIIA-Fc:ALK4-Fc heterodimer, ActRIIA-Fc homodimer, and ALK4-Fc homodimer were independently captured onto the system using an anti-Fc antibody. Ligands were injected and allowed to flow over the captured receptor protein. Results are summarized in Table 14 below, in which ligand off-rates (kd) most indicative of effective ligand traps are denoted in bold.
This is another data set of the same source.

For experiment [10], the target named is B3. Described as above. On the procedure:
as §3
The source holds these as a separate data set.

A further experiment concerns the target T4, activin AB. The description is as above. On the procedure:
as §3

A further experiment concerns the target T5, activin AC. The experiment is described as above. On the procedure:
as §3

Experiment [11] addresses T6, BMP6. Described as above. On the procedure:
as §3

The next experiment deals with T7, BMP7. The experiment is described as above. On the procedure: as §3
The target in experiment [12] is B6. Described as above. On the procedure:
as §3

The target of experiment [13] is B3. Description: SPR (Biacore); receptor-Fc captured by anti-Fc antibody, ligand injected; † Very low signal. On the procedure: as §3
Experiment [14] addresses B3. The experiment is described as above. On the procedure: as §3
The source holds these as a separate data set.

The target of the next experiment is T8, GDF8. The experiment is described as follows: SPR (Biacore).
The target of experiment [15] is T6, BMP6. The experiment is described as follows: SPR (Biacore).
Experiment [16] concerns the target B6. The experiment is described as follows: SPR (Biacore).
Experiment [17] has as its target T9, ActRIIA-mFc. Description: SPR (Biacore), similar binding assay. On the procedure:
GDF11 or activin A were immobilized on a Biacore™ CM5 chip using standard amine-coupling procedure. ActRIIA-hFc and ActRIIA-mFc proteins were loaded onto the system, and binding was measured. […] Using a similar binding assay, ActRIIA-hFc was determined to have high to moderate affinity for other TGF-beta superfamily ligands including, for example, activin B, GDF8, BMP6, and BMP10. ActRIIA-mFc behaved similarly.

Positions count from the first letter of the chain named. Numbers in names are those of the source. Read-outs that look alike come from different tables or passages of the source.

T9 sequence (P27037 21-135): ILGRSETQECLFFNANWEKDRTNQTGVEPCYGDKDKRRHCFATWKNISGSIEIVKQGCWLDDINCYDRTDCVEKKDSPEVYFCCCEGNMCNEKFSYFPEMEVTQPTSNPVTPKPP

In the case of B1, the binding result was “no binding” with GDF11 [1] and “binds” with activin A [2].

As to B2, the binding result with activin A [3] and in the experiment with GDF11 [4] was “binds” each time.

Regarding B3, the binding result with ActRIIA-mFc [5] was “binds”. Binding in [6] was put at a Kd of 19 nM.

On to B4, for which the Kd (as a rule, the concentration at which binding is half-saturated) in the experiment with activin A [7] was found to be 20 nM; with activin A [9], 20 nM; with activin AB, 2 nM; with GDF11 [13] it was 0.97 nM; with GDF11 [14], 0.97 nM. Moreover, the koff (in general, a measure of how fast the partners let go of each other) with activin A [7] turned out to be 0.012 s⁻¹; with GDF11 [8], 0.0048 s⁻¹; with activin A [9], 0.012 s⁻¹; with GDF11 [10], 0.0048 s⁻¹; with activin AB it was 0.0036 s⁻¹. Moreover, the kon (as a rule, the second-order rate constant of association) was determined as 580000 M⁻¹ s⁻¹ in the experiment with activin A [7]; 5e+06 M⁻¹ s⁻¹ with GDF11 [8]; 580000 M⁻¹ s⁻¹ with activin A [9]; 5e+06 M⁻¹ s⁻¹ in the experiment with GDF11 [10]; 1.8e+06 M⁻¹ s⁻¹ with activin AB. In addition, the binding result in the experiment with activin B, with activin AC, with BMP6 [11], with BMP7 and with BMP10 [12] was “no binding” each time.

In the case of B5, the binding result with GDF8, with BMP6 [15] and in the experiment with BMP10 [16] was “binds” throughout.

In the case of B6, the binding result with ActRIIA-mFc [17] is recorded as “binds”.
